Reference: patent US20260209362A1 (VIB VZW, published 2026)
Changes are numbered by the printed parent chain.

T1: biotinylated recombinant mouse IL-12Rβ2 (produced in-house) (mouse, UniProt P97378 24-637, random biotinylated)
T1 construct: also called mIL-12RB2; mIL12RB2
T1 sequence: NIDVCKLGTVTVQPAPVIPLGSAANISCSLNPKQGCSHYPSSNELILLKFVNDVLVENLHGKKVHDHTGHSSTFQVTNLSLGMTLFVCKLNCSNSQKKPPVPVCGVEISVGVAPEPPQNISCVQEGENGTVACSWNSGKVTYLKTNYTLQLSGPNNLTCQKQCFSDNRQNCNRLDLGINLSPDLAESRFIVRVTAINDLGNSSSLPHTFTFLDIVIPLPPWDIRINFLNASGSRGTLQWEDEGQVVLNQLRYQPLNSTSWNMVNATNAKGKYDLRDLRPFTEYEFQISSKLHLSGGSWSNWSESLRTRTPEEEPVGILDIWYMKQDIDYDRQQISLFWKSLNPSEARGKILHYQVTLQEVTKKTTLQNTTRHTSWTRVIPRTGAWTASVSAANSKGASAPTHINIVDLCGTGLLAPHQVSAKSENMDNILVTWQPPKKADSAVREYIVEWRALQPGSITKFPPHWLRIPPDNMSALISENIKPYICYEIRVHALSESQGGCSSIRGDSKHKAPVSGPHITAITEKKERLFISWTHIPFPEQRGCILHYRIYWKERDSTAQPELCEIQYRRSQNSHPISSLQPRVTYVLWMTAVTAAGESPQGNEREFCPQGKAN

T2: biotinylated recombinant human IL-12Rβ2 (produced in-house) (human, UniProt Q99665 24-622, random biotinylated)
T2 construct: also called hIL-12RB2; hIL12RB2
T2 sequence: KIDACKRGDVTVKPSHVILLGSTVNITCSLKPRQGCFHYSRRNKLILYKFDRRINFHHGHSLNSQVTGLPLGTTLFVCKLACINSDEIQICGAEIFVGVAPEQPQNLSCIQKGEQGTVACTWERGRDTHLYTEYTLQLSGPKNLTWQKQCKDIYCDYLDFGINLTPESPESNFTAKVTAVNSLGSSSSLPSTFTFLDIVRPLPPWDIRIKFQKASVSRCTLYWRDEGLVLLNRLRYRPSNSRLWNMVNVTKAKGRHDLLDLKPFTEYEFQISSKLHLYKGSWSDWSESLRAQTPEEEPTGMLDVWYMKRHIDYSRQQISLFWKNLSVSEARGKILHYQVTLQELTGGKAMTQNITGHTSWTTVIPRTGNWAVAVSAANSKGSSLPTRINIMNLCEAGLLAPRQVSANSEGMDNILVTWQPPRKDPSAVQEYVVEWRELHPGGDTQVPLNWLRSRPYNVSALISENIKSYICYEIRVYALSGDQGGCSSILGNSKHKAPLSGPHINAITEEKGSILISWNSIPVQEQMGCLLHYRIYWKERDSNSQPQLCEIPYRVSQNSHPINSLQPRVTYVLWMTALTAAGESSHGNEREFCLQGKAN

T3: biotinylated recombinant human IL-12Rβ2 (human, UniProt Q99665 24-622, random biotinylated)
T3 construct: Recombinant protein produced in-house, biotinylated; also called hIL-12RB2; human IL-12RB2
T3 sequence: T2 sequence

T4: biotinylated recombinant mouse IL-12Rβ2 (mouse, UniProt P97378 24-637, random biotinylated)
T4 construct: Recombinant protein produced in-house, biotinylated; also called mIL-12RB2; mouse IL-12RB2
T4 sequence: T1 sequence

T5: human IL-12Rβ2 expressed on cells (human, UniProt Q99665 24-862)
T5 construct: HEK293T cells transiently transfected with a human IL-12Rβ2 plasmid (Genscript OHu21785); also called hIL-12RB2
T5 sequence: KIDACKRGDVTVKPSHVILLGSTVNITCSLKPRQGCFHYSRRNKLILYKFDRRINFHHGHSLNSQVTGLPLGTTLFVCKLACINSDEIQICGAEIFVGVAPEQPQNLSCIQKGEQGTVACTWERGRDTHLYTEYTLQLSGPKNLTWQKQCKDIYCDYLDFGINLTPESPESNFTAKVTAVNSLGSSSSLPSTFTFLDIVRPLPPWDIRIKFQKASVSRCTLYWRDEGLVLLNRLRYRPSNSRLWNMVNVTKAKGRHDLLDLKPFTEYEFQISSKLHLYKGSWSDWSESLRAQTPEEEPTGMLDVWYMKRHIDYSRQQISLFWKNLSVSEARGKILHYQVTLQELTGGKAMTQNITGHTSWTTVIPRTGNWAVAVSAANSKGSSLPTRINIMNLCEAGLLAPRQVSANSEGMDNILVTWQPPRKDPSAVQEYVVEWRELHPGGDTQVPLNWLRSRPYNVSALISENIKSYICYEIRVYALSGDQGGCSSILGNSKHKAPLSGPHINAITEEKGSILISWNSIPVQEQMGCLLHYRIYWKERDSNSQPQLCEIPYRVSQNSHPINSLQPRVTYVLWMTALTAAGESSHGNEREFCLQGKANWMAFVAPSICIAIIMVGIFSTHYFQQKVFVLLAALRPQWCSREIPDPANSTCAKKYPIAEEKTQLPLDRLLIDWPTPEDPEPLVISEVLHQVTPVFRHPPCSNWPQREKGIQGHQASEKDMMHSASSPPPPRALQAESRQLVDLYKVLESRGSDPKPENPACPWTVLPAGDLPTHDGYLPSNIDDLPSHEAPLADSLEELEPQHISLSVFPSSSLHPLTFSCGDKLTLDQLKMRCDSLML

B1: anti-IL-12Rβ2 VHH clone 2CRH82 (VHH, not shown: small tags and cut ends)
VHH: QVQLQESGGGLVQAGGSLRLSCAASARTESMYAMAWFRQAPGKEREIVAGIIQSGGTTYISDYMKGRFSIDRGNAENTVYLQMDSLKPEDTAVYSCAAKVSSGTPSDIQISQSRWYDHWGQGTQVTVSS
notes: tested as periplasmic extract
B2: anti-IL-12Rβ2 VHH clone 3CAHS171 (VHH, not shown: small tags and cut ends)
VHH: QVQLQESGGGLVQPGGSLRLTCVASGFPFSTHAMSWVRQPPGKGREWISAINSGGDSTDYADSVMGRFTISRDNAKNTVYLQMNSLKSEDTAAYYCAKYEDCSDYDCSSRASWGQGTQVTVSS
notes: tested as periplasmic extract; also called 3CANS171
B3: anti-IL-12Rβ2 VHH clone 3CAHS41 (VHH, not shown: small tags and cut ends)
VHH: QVQLQESGGGLVQAGDSLRLSCAASGRTFDTYIVGWFRQAPGKEREFVSALSWSDDTTIRDDSLRGRFTISRDNAKNTVYLLMNSLKPEDTAVYYCAAKAKPPAATWSSYRNREWYDYWGQGTQVTVSS
notes: tested as periplasmic extract
B4: anti-IL-12Rβ2 VHH clone 21062 (VHH, not shown: small tags and cut ends)
VHH: QVQLQESGGGLVQPGGSLRLSCAASGISSSRLHVGWFRQSPGKEREFVAAISLSGGTQAYTDSVKGRFTISGDNVKNTAYLQMNSLRPEDTAVYYCAARERFIWTWSDLTYDYWGQGTQVTVSS
notes: tested as periplasmic extract; also called 3CRHM99
B5: anti-IL-12Rβ2 VHH clone 21052 (VHH, not shown: small tags and cut ends)
VHH: QVQLQESGGGSVQAGGSLRLSCAVSGRTVSDYAMGWFRQAPGKEREFVAAMSSSETTVYPNSVKGRITISRDNAKNAVYLQMNALKPEDTAVYYCSMGPIVTFQGLARQNEYHYWGQGTQVTVSS
notes: tested as periplasmic extract; also called 3CRHM12
B6: anti-IL-12Rβ2 VHH clone 21055 (VHH, not shown: small tags and cut ends)
VHH: QVQLQESGGGLVQAGGSLRLSCAASGRTFSKSTMGWFRQTPGKEREFVAAITWTDTEVYANSVKDRFTISRDNAKNTFYLQMHSLKLEDTAVYYCAGDRYGSSRDSVFSSPTNYPYWGQGTQVTVSS
notes: tested as periplasmic extract; also called 3CRHM20
B7: anti-IL-12Rβ2 VHH clone 21061 (VHH, not shown: small tags and cut ends)
VHH: QVQLQESGGGLVQPGGSLRLSCAASRRTFSKHAMAWFRQAPGKEREFVAVVRWSGIITYYADSVKGRFTISRDDAKNTVYLQMDSLKPEDTAVYYCAAGDYRGNGYYVPGMYDYWGQGTQVTVSS
notes: tested as periplasmic extract; also called 3CRHM85
B8: anti-IL-12Rβ2 VHH clone 21058 (VHH, not shown: small tags and cut ends)
VHH: QVQLQESGGGLVQAGGSLRLSCAASGRTFSNYAMAWFRQAPGTEREFVAGLSGSGGDTAFYDNSVMGRFTISRDSAKNTMWLQINNLKPEDTAVYYCAAATHVVVSYGLVRRRGTYDYWGQGTQVTVSS
notes: tested as periplasmic extract; also called 3CRHM49
B9: anti-IL-12Rβ2 VHH clone 21064 (VHH, not shown: small tags and cut ends)
VHH: B8 VHH with A14P
notes: tested as periplasmic extract; also called 3CRHM200
B10: anti-IL-12Rβ2 VHH clone 21057 (VHH, not shown: small tags and cut ends)
VHH: B8 VHH with S106N
notes: tested as periplasmic extract; also called 3CRHM35
B11: anti-IL-12Rβ2 VHH clone 21054 (VHH, not shown: small tags and cut ends)
VHH: B8 VHH with A14D, R112K
notes: tested as periplasmic extract; also called 3CRHM18
B12: anti-IL-12Rβ2 VHH clone 21053 (VHH, not shown: small tags and cut ends)
VHH: B8 VHH with A59E, N63D, M66K, T70A, M80V, I84M, N86S, S106H
notes: tested as periplasmic extract; also called 3CRHM14

Target: T1, biotinylated recombinant mouse IL-12Rβ2 …
Assay: ELISA, P.E. VHH on biotinylated mIL-12RB2, signal ratio to control well

Binder	ELISA mIL12RB2/control
B1	1.77
B2	0.96
B3	1.35

Target: T2, biotinylated recombinant human IL-12Rβ2 …
Assay: BLI (Octet), P.E. VHH on immobilised biotinylated hIL-12RB2

Binder	Response
B1	0.426
B2	0.195
B3	0.609

Target: T3, biotinylated recombinant human IL-12Rβ2
Assay: ELISA, periplasmic extract on biotinylated hIL-12Rβ2, signal over control wells

Binder	ELISA binding hIL-12RB2/control
B4	4.24 ratio
B5	7.28 ratio
B6	8.23 ratio
B7	3.52 ratio
B8	3.2 ratio
B9	3.58 ratio
B10	4.84 ratio
B11	3.61 ratio
B12	3.11 ratio

Target: T2, biotinylated recombinant human IL-12Rβ2 …
Assay: BLI (Octet), P.E. VHH on immobilised biotinylated hIL-12RB2, 1:1 model

Binder	koff
B1	0.00274 s⁻¹
B2	0.00431 s⁻¹
B3	0.00441 s⁻¹

Target: T1, biotinylated recombinant mouse IL-12Rβ2 …
Assay: ELISA, P.E. VHH on biotinylated mIL-12RB2

Binder	binding result
B1	no binding
B2	no binding
B3	no binding

Target: T4, biotinylated recombinant mouse IL-12Rβ2
Assay: BLI (Octet), periplasmic extract on biotinylated mIL-12Rβ2 on streptavidin tips

Binder	Response
B4	0.812
B5	0.837
B6	0.586
B7	0.816
B8	1.15
B9	1.01
B10	1.04
B11	0.699
B12	0.957

Target: T4, biotinylated recombinant mouse IL-12Rβ2
Assay: BLI (Octet), periplasmic extract on biotinylated mIL-12Rβ2 on streptavidin tips, 1:1 model

Binder	koff
B4	0.00671 s⁻¹
B5	0.00599 s⁻¹
B6	0.0059 s⁻¹
B7	0.00474 s⁻¹
B8	0.00583 s⁻¹
B9	0.00546 s⁻¹
B10	0.00535 s⁻¹
B11	0.00618 s⁻¹
B12	0.00483 s⁻¹

Target: T2, biotinylated recombinant human IL-12Rβ2 …
Assay: ELISA, P.E. VHH on biotinylated hIL-12RB2, signal ratio to control well

Binder	ELISA hIL12RB2/control
B1	16.1
B2	3.27
B3	8.77

Target: T5, human IL-12Rβ2 expressed on cells
Assay: flow cytometry, P.E. VHH on HEK293T cells transiently expressing hIL-12RB2

Binder	dMFI
B1	744
B2	1180
B3	971

Target: T3, biotinylated recombinant human IL-12Rβ2
Assay: BLI (Octet), periplasmic extract on biotinylated hIL-12Rβ2 on streptavidin tips, 1:1 model

Binder	koff
B4	0.00634 s⁻¹
B5	0.00547 s⁻¹
B6	0.00486 s⁻¹
B7	0.00343 s⁻¹
B8	0.00619 s⁻¹
B9	0.00571 s⁻¹
B10	0.00576 s⁻¹
B11	0.00548 s⁻¹
B12	0.00532 s⁻¹

Target: T3, biotinylated recombinant human IL-12Rβ2
Assay: BLI (Octet), periplasmic extract on biotinylated hIL-12Rβ2 on streptavidin tips

Binder	Response
B4	1.45
B5	1.32
B6	1.18
B7	1.32
B8	1.54
B9	1.38
B10	1.36
B11	1.14
B12	1.19

Target: T4, biotinylated recombinant mouse IL-12Rβ2
Assay: ELISA, periplasmic extract on biotinylated mIL-12Rβ2, signal over control wells

Binder	ELISA binding mIL-12RB2/control
B4	5.24 ratio
B5	38.3 ratio
B6	20.2 ratio
B7	8 ratio
B8	41.2 ratio
B9	5.37 ratio
B10	35.5 ratio
B11	45 ratio
B12	25.1 ratio
